# Measured values taken from publication PMC9616408.
# Biological target: SD93 NA K385N/N387K mutant, recombinant NA head domain (residues 82-469) fused to a VASP tetramerization domain (not stated | influenza A virus A/Shandong/9/1993 (H3N2))
# Assay: SEC; HiLoad 16/100 Superdex 200 prep grade, 20 mM Tris-HCl pH 8.0, 100 mM NaCl, 10 mM CaCl2; NA head domain fused to a VASP tetramerization domain
substance,measurement,value
"SD93 NA K385N/N387K mutant, recombinant NA head domain (residues 82-469) fused to a VASP tetramerization domain (domain or fragment)",stoichiometry N,4
